# Experiment: soluble on expression in E. coli; label from the status in PepcDB or PDB records
row,Sequence,soluble on expression in E. coli
1,MVTSPPTSSPSQRSYSPQDWLRGYQSQPQEWDYWVEDVEGSIPPDLQGTLYRNGPGLLEIGDRPLKHPFDGDGMVTAFKFPGDGRVHFQSKFVRTQGYVEEQKAGKMIYRGVFGSQPAGGWLKTIFDLRLKNIANTNITYWGDRLLALWEGGQPHRLEPSNLATIGLDDLGGILAEGQPLSAHPRIDPASTFDGGQPCYVTFSIKSSLSSTLTLLELDPQGKLLRQKTETFPGFAFIHDFAITPHYAIFLQNNVTLNGLPYLFGLRGAGECVQFHPDKPAQIILVPRDGGEIKRIPVQAGFVFHHANAFEENGKIILDSICYNSLPQVDTDGDFRSTNFDNLDPGQLWRFTIDPAAATVEKQLMVSRCCEFPVVHPQQVGRPYRYVYMGAAHHSTGNAPLQAILKVDLESGTETLRSFAPHGFAGEPIFVPRPGGVAEDDGWLLCLIYKADLHRSELVILDAQDITAPAIATLKLKHHIPYPLHGSWAQT,soluble
2,MAGKWNVLSLLAFRPCQPALPHDNHGGGMDAIYLKLDGIEGESRIKGFENQIKLIAYNHNPTKRESGEARGTYIGGLTLTKPVDLATPGLYEHYCNGKTVKEGVLTLCRRDKGAMLPFIIYTLTNVRISRMSNHGDAEGSATETVDLVYSHIRWDIPALASKSKTRRPLHRQALWR,not soluble
3,MESTSTTVPSIVVYVTVPNKEAGKRLAGSIISEKLAACVNIVPGIESVYWWEGKVQTDAEELLIIKTRESLLDALTEHVKANHEYDVPEVIALPIKGGNLKYLEWLKNSTRES,soluble
4,RSECMGFFRRLLGLSWISIPKLPKKERKNNHDESENESLGNGYDTGESENLSGYLNNSEYEDGPAGESADDPDDYIPPHKEEGENDSSQSIQMGSMTVELAQEEEKADEALLAEIKTDPRMDLASYKFPSVDLLTQYDLQQPPIDMNEIEENQKRIIATLDSFKIHVTPIKATVGPTVTLYEVAPDSGIKISRIRNLEDDIAMSLKAVGGIRIIAPMPGKGTIGIEVPNRKPQTVSMYSVLTSKKYQESDMDLPVALGKTITNEVFIFDLCKMPHLLIAGATGQGKSVGLNAMITSLLYKKHPAELKFVLVDPKMLEFAVYEAIERHYLAKLPDEDRAIVTDMTKVVPTLNSLCIEMDNRYRMLTEARVRNIKEYNDQIISGKLSRLHGHKFLPYIVLIVDEFADLIMTSGKEVERPITRIAQKARAAGIHMVVATQRPSTDIITGIIKANFPARIAFKVFSMIDSRTILDQPGANQLVGRGDMLFYQGKDTVRLQCAFLDTPECEAVTHHISLQESYTSAYELPEYVPEGEEGGPKAFNPQEKDPLFEEVARMVVNSQQGSTSNIQRKFNIGYNRAGRLMDQLEGAGIVSPQDGSKPRQVLIQDEMSLERLFETLR,not soluble
5,MTTRDLTAAYFQQTISANSNVLVYFWAPLCAPCDLFTPTYEASSRKHFDVVHGKVNIETEKDLASIAGVKLLPTLMAFKKGKLVFKQAGIANPAIMDNLVQQLRAYTFKSPAGEGIGPGTKTSS,soluble
6,MSLADKAFHTRLINMRRDLHEHPELSFQEVETTKKIRRWLEEEQIEILDVPQLKTGVIAEIKGREDGPVIAIRADIDALPIQEQTNLPFASKVDGTMHACGHDFHTASIIGTAMLLNQRRAELKGTVRFIFQPAEEIAAGARKVLEAGVLNGVSAIFGMHNKPDLPVGTIGVKEGPLMASVDRFEIVIKGKGGHAGIPNNSIDPIAAAGQIISGLQSVVSRNISSLQNAVVSITRVQAGTSWNVIPDQAEMEGTVRTFQKEARQAVPEHMRRVAEGIAAGYGAQAEFKWFPYLPSVQNDGTFLNAASEAAARLGYQTVHAEQSPGGEDFALYQEKIPGFFVWMGTNGTEEWHHPAFTLDEEALTVASQYFAELAVIVLETIKEGGSHHHHHH,soluble
7,MSLGASATRILFVDDEPSILKSLRRVTRSMSAECIFVDNGRDALALMRENPFDVVVSDMRMPEMDGATLLAEIARDYPETMRLVLSGFAEDDLILAAINEGRVWGFIHKPWDDHQLIVTLQHAVTTQQMMVERALLRRTVERYTSELKESFVSFVGGSLPMQAVYNQIERAAPSNASVFITGPSGTGKELAAEAIHKLSERKNGPFIALNCAAIPTELMESEIFGHVKGAFTGAVSARDGAATQAHNGTLFLDEIGEMDISLQAKLLRFIQTGSFQKVGGTKQENVNIRFVCATNRAPLDAIANGTLREDLYYRLNVVALHLPPLNQRENDPILLANTFLQRFAAQERKELVGFSSEASSLILGYDWPGNVRQLQNCIHNVVVMSAGPLITPNDIAIALQLDPQQVATEGHHHHHH,not soluble
8,MKKIATATIATAGFATIAIASGNQAHASEQDNYGYNPNDPTSYSYTYTIDAQGNYHYTWKGNWHPSQLNQDNGYYSYYYYNGYNNYNYNNYNNGYSYNNYSRYNNYSNNNQSYNYNNYNSYNTNSYRTGGLGASYSTSSNNVQVTTTMAPSSNGRSISSGYTSGRNLYTSGQCTYYVFDRVGGKIGSTWGNASNWANAAARAGYTVNNTPKAGAIMQTTQGAYGHVAYVESVNSNGSVRVSEMNYGYGPGVVTSRTISASQAAGYNFIHLEHHHHHH,not soluble
9,MGSDKIHHHHHHMKIYIMKQQMRQAKRVNYLDEHLNCLFYNGNPEIGFRHLTLQKGKTWCELSAKNNYFFFLLEGALIVDFNECVGYEVGKGEMIYLPRSADFKIFAKESADLIILSYGIPVQLCDKLSLSQLGAFITDFKYEFKSLDIRVPLDTFLKLLVKYLDSGMSCQHMHELKQKELFLILRAYYTKEEKVNFFYHSIAASLTFKDKVMGVYLEARTVQELADKCGYGLKTFQRLFYSCFSEVPSKWLMKQKAQHVKARLLDRDIPIKVILDEFGFSTYANFCNYCKRYVGDTPRNIRESVTLGFRK,not soluble
10,MGSDKIHHHHHHMETREQAKFFHLDEFSGLSLLQASYHRQRFARHVHETFCIGVIEEGVQRFYRTGGEHVAPKGDIILVNADEIHTGSPGVETGWAYRAIYPHPDLMLLLSRDLINANGTVPWFPEAVVHDPGLAEQFRLVFNLLTRDGDRLLKESLLLSSIASLVMRHGRTPAFARELPSVGQPLRIIKDLIASCPEEDYSLTQLAEMAHLSPWHFLRQFKKQVGLPPHAWLIQARLKRARQLLRRGLPIPVVAARCRFSDQSHFNRHFKSSFGITPGEFIRTLPSLSA,not soluble
11,MRILFIGDVVGSLGREALATYVPKLKKKYRPQVTIANGENAASGRGITGKIYKKFLQDGVDVVTMGNHTWDNKDIFEFIDDAKKMVRPANFPEDVPGQGMVFVKVNQLELAVINLQARTFMVPLEDPFKKAAELVAIARKRTPLIFVDFHGETTSEKQAMSWFLDGQVSAVVGTHTHVQTNDARILPKGTAFLSDVGMTGPYDGILGMKREPIIEKFMTALPKRFEVVETGRTILSACILEIDDQTGQAKMIEPIQISEDRPFQE,not soluble
12,MKIEKFKVLLYLKKSRPDKSGKAPIMGRITVNRSMVQFSCKLSCTPDLWNPRESRLNGKSNEAVEVNAKLDKLLLSIHAAFDTLVERKADFDAEAVKNLFQGSLETQMTLLAMTDIVCEELRKRIGIDRAKGTYPAYFYTRRTLAEFIQKKFHSKDIAFGQLTEQFIHDYQFFVVDDKGLTIETSRHYLAIIKKVCRKAYKEGYADKCFFAHFSLPKQEEKTPKALSRESFEKIRDLVIPEHRSSHILARDLFLFACYTGTSYADAVSVTRDNLFTDDEGSLWLKYRRKKNELQACVKLLPEALELIEKYNDDTRPTLFPMLYHPNLRRLMKCLAVLADIKEDLTYHAGRHSFASLITLEAGVPIETICKMLGHSNLQTTQRYAKVTPKKLFEDMDKYIEATKDLKLIL,not soluble
13,MSLSEEDLEKFLIKELTLQGYERLNLSDINDLESNFKLQLQRLNNISFSPTEWESFYRQNITNLKLTFEDKTKMLQSDGFTLTLEKEDGSKKNIILIDRVNPINNHLQVISQLKNENGEFKNRYDVSILVNGLPLVHIELKRRGVNLKEAFNQIRRYQKESFLEGNALYEFVQIFIISNGTLTKYYSNTNEGHHHHHH,soluble
14,RSVAAPLVKLRKATQNIKEGNLDFVLDVEGTDEFSELCRDFEEMRRRLKESAEEKIAMDKENKELISNISHDLKTPITAVKGYVEGIMDGVADTPEKMDRYVRTIYNKTNEMDHLINELTFYSKIDTNRIPYTFSKLNVEDYFSDCAEEVGLELETRGIQLCYANYVDKDVLVIA,not soluble
15,MIKWPWKAQEITQNEDWPWDDALAIPLLVNLTAQEQARLIALAERFLQQKRLVALQGFELDSLKSARIALIFCLPILELGIEWLDGFHEVLIYPAPFVVDDEWEDDIGLVHSQRVVQSGQSWQQGPIILNWLDIQDSFDASGFNLIIHEVAHKLDMRNGDRASGIPFIPLRDVAGWEHDLHAAMNNIQDEIDLVGESAASIDAYAATDPAECFAVLSEYFFSAPELFAPRFPALWQRFCQFYRQDPSQRLRVSAAEGDYGEESEH,not soluble
16,MTKTRRRGAELENAIYQAARDILNQDGLEQLTFANVAEQAGTSKPVIYRRWRSPLELAIAAIQDQIITENHGQLDEVSLTGQTLSEDLFQVLKRFTVSINTFNQALVITWFHHLDQQANPEVKDLLNAVKKIDAHAIERVCQRAQQRGELRTGTLSCDLQLMPFDWLRYRAFANEPITDATLHLLVDDLLVPAYQHALG,not soluble
17,MAHHHHHHMLNVLCDIKRYNGFDYYKCPRTILKKTCNFVKRENVADSIFIGNEIEFFIFDKVNFGLDDYDSYLKVYDREAFSCKNGGSGGSAVGSGSHDTTAGVACIACAGHVPPNDDSKKVKKKCGYFATDPYDTSNMIKLRICRILNSLNVHVQKYHHEVSTSQHEISLKYFDAVKNADNLIITKQVIKSTVHNFNRTATFMPKPLVSDNGSGLHCNISLWKDNKNIFFADDPSTFFLSKEAFYFMNGIIKHAKALQAFCNSTMNSYKRLVPGFETCQKLFYSFGSRNAVIRLSMINYSNPSEKRIEFRLPDYANSPHLVLAAIILAGYDGIKSKEQPLVPFESKDNNFFISSIFSNYVENTQNFKTLTHALEGYDTIHDVKKSPEFVNFFTCKEPESICFSLEESLDALEKDHAFLTVDGIFTEVRFVGKCGEAPNTVDTYLPTYPCVLPFVLPICLPHLFSPFFPTAGSH,not soluble
18,MGSDKIHHHHHHMAHVNTNGIQIEYEVFGKRTNPTIVLIAGNGAQLNFWESDFCEMLAQHNLQVIRFDNRDAGLSTKFDAAGIPDMSKIYQAAQEGKPIKTAYTLEDMADDVAGLLDALEIKKAHICGASMGGMIAQVFAYRHPLRICSLISIMSSTGNPNNPKISQETLEIVTATPPNQRGAYIEYTVHMWKKLWSKGFPFEEERAIRYTEESYDRCYYPQGAVRQNAALVANGDRRKYLSLLRVPTLVIHGTADPLIPVEAGKDTARTIPNAKLLLIEGMGHDMPKGTWKCIVEAIVSLVRDTSHSCWR,not soluble
19,MGSDKIHHHHHHAQESLFLKDPSTKNKLLQLDLDVGTCFDLAYRGKGNMYTAMSDRKSVFPAINLRLQHFFSRKWGWYTNIRLGIPVKYRRDCYTELVHAVEADYYVNNLIPGTQKPDVNPCLDFGVAYRFENSHWAFYPRLGIGVNSISYQRVCAELKKKGGNELYKIEYRGDDESNYGSESIDAFILSAGITANYKLSRNCFLLLNVNYIQPLGRFTYRKYVTDLYTGEKVERGVYKSSTFARDLNVSVGFGFPFYLGRKTNRKSSHRERTRQLMEQKRKTYGLFPGNK,not soluble
20,MGSDKIHHHHHHMHRLPPLRAIQVFDSVARNQSFSIAASQLAITQGAVSKQVKLLEEFYAEKLFIRCGTNIELTKKGTWLAYQLTPIFDQLNGICNFNSISRGKIRIATYPSLSLGYLTYEIEQFNSAHPNIDVEIILAINHPTMCDEIADLFITTEESIDGYHYQQLFQERLIPVISPKIINDTTIIKIKDLTGYTLLVTNGKENSDWQLWFNHHNLKPAIYQKMNMFSDALLSTRAAELGNGIALSCEVTAHRDIIDGRLCKVGLPSAPTGRRYFLCCKNRRRYEPNIKLLSDWINKKFIND,not soluble
21,AVSGIRQSLISRKALTLFKTVLPAMSQTEKEALDAGTVWWEAELFKGKPEWEKLHAIQAPKLSAEERAFLDGPVNEVCAMVSDFQVTHELADLPPEVWQYLKDNKFFAMIIK,not soluble

# From the DeepSol protein solubility set
